Test: label from the status in PepcDB records
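Further: failed if final PepcDB status was selected cloned or expressed and not failed if soluble or beyond.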

| Sequence | protein production |
| --- | --- |
| MHESMREIAERATFQSFANCYRREIDPGMPSQHRPECGDRRTYVEWSCPMAAATLRAEVERESLCGPFRFGRVFICRAPDNAWHEIAPLRALYLMVQECYSGIGAARAEALRNEEAELLGRVLASYQCIADSLQRSSGEAGRTFLDGEQSLMFGHWLHPTPKSRQGMADWQQPTYAPEHRGQFQLTYFAVDAALLRYGSAGDVSVSGILETLLPEADRPTLRPGEALIPLHPMQAEAVMLSPDIAELAREGRLRRLGPFGAEFSPTSSVRTVYSPAIPWMLKFSLPVRITNSLRINRMPELKAGVAMSRLFARTDFLARHPCFRLIRDPAYLTLGLPGRTESGFEIIFRENPFTTGNETKGITIAALTADPPPHARSRLDVLVREYAAQQGLPVASACRHWFSAYLDCALDPLVRLYNELGVALEAHQQNVLLDVSSGLPTASYYRDNQGFYLSNAHRDRLVSLVPETAEIGGLYFDDHVIQERFAYYLIVNQICSMIARMGQDRLIDEEALLIMLRERLNGLARELAGVGRDFASGIVDRPTVAAKANLLTRMLDIDELEAEDGRAIYVQLPNPLFGDRRSARRGEARAASR | failed |
| MNELDVREFYQKQFELSNYDINTERWLEQLAKEVKEQIGYPFQSMLELGAGNGGFARAMSNLNVKMTTVELVPELVMFAKEHSTNDIEVHCADFYKINFEEKFDIVTYLDGFGVGTDEEQLFLLKRIYNWLKDDGCALIDIYQPLYWEKANGQEMPIYSAMRKYEYDSENARMLDHWWEKDSSNDIVTQSLRCYTIDEISNLCAEARFSIVGIFPGGAYDFEERKYKEQASLNECLSYRIKVKKSKD | failed |
| MSLAQYPVIGIDDDEFATAKKLITKQEVRAVTLSKLRLQDDLVMWDIGAGSASVSIEASNLMPNGRIFALERNPQYLGFIRDNLKKFVARNVTLVEAFAPEGLDDLPDPDRVFIGGSGGMLEEIIDAVDRRLKSEGVIVLNAVTLDTLTKAVEFLEDHGYMVEVACVNVAKTKGLTEYKMFESHNPVYIITAWKSDEGHHHHHH | not failed |
| VQIKNATAIVTGASSGIGLAFASLLAQKGYNLLLIARNINKLNDLAKTLSTQYDTQCNVLSIDLSEENASKKVLEYIITNNLNISVLINNAGFSGNYKFLEADWSQLSKELNVMSIAVTELCYLIAPLMEKNSWGRIINVSSGAAYLPPTQSLLYTGLKSYVLNFSQSLDMELKPKGINVTALCPGFTRSEFHNTMGTNKQVSKVPNFLWQAPDQVA | failed |
| GTAYWKNPDQFTAFNTGLHALLREKSYNFFLLGEPRADIYGDNPIGGEASQGMERLPFNTINKENVGISNYGDMYKIINQINQMIAKTTETTILTEATQNYYLGEAYGMRAYLYFHLLRSWGDVVLYLDYTEGQNLDLSNITKGVSPATEVMEQIKKDIQASENAFGSDYSFKLGRHFWSAAATQMLKGEAYLWSGRQMNGGNSDYTIAKNAFENVKKADVGLVTSSFKDIFSFENKKNKEMIFTIHNGKDEYEMWGGYYRMRLIPAQDKMVKIYCDENGNSFVGTPDAQLNGLTQLQVRREFYFKGFRNNDTRWTTSLKAVYKKDAQGVVSYFGPITYKFQGTMLEGGSTRSFLDDFPIYRYADCLLQLAMAKVLLGEDPTEEINAVRERAYGSKYFNEHKAEIAYPNDNDPEFYTDNKWMKPDNAGALEAILKERLREFMFEGKRWYDIRLLGWDYVHQYSSAEQSRLLWPIDAGTLTNNSALKQTPGYE | not failed |
| MFQPHLPVRLPCYDLAPITSFTLGRSLRLRTSGTPGFHGLTGGVYKARERIHRAMADARLLANPASRSRVADFDPN | failed |
| MSTDFDRIYLNQSKFSGRFRIADSGLGWKISTSGGSAANQARKPFLLPATELSTVQWSRGCRGYDLKINTKNQGVIQLDGFSQDDYNLIKNDFHRRFNIQVEQREHSLRGWNWGKTDLARNEMVFALNGKPTFEIPYARINNTNLTSKNEVGIEFNIQDEEYQPAGDE | not failed |
| MLDPILLLGLVVAVLAMSLVAQALSSYFRIPFIIFLLIEGIIAGPEVLNLLNPALYVDGLSTIVAISVSVIVFDGGLHIDLKHIRMVQESVLKLTTIGVFVTFLGTTVLTSLLIEIPLELAALFGALVTATGPTVITPIVRNIQISHKLGKILELEGVLNDAASVILAAMVFEWVAAELSGTDAVVFILYRLGIGIALGSLSGFALRWFFTRGKAISNRTARLVSLTAVFSCFVFSEYLGNESGILAVAIFGIILGTSDFPYKDTIKEFKSDIVIVMLSLIFILLAAMIKFEYILRIGASGVALVLLLIFVIRPFAVFVSMWNSQIGTNEKLFISFVGPRGVVPTAVATYFAIKLDSMGIPGGQTLVGLVFLTVIITVFMSGSLSKKVAEVLEVIPMEILIIGGGKVGRILAERFDKRGENVVVVDISEDNCKKCMELGIRTVQGDAGDVNVLKKAGIENAKYVVATTNQDNTNLLFCQLAKASFGFRGDQLVARVNEIENLQAFWNLGIRSMSPAMTTAVVLDNMIGRPHLFSMCEVGGEGEMMEVKVTNPRVIGKAIKDIQFPEKSLLVMVQRGSDSIIAHGNLVLEYEDIVTVIGEGDAAKQTAAILHK | failed |
| MAYTTTVKLDGDTKTYTLSPTVKKYTLMDLGFVKGRSGAFSFERSLDPTSPYQAAFKLKMTVNADLTGFKMTTVTGNGVQRANIFKNDAHPEAVEQLRYILANFIERDILTTD | not failed |
| MKLKNPLDMHLHLRDNQMLELIAPLSARDFCAAVIMPNLIPPLCNLEDLKAYKMRILKACKDENFTPLMTLFFKNYDEKFLYSAKDEIFGIKLYPAGITTNSNGGVSSFDIEYLKPTLEAMSDLNIPLLVHGETNDFVMDRESNFAKIYEKLAKHFPRLKIVMEHITTKTLCELLKDYENLYATITLHHLIITLDDVIGGKMNPHLFCKPIAKRYEDKEALCELAFSGYEKVMFGSDSAPHPKDTKECCGCAAGVFSAPVILPVLAELFKQNSSEENLQKFLSDNTCKIYDLKFKEDKILTLEEKEWQVPNVYEDKYNQVVPYMAGEILKFQLKH | not failed |
| MAVLNLFHIFATTVDSTAVEKNLLIMKFYNREKEIAELKRVQELAFGQNSRMIVVTGRRRIGKTSLIKQALKGTPTVYFFIGRKAESILVADFIKIVRETLSIFIPDGISNFTTLIQYLFEIGKTRSFNIVIDEFQEFYNIRPDVFSDMQNLWDEYRQETKINLVISGSVYSLMQKIFTDHGEPLFGRADNILCLRPFNTKVLKQIMEDFAPGYSNDDLLALYTLTGGIPKYVELFCDNQALSVDRIYDFVFSENSLFIDEGRNLLITEFGKNYGIYFSILLEIANGHYTQGEIESALGGISIGGHLSKLENVYNLITRERPIFAKPGTKKNVRYIIGDNFLNFWFKYIERNRSYIELQNFEDLRQLAKADYQTYSGRVLEKYFKQKLAEEGGFKEIGSWWETKSSANKERLNSFEIDIVALKSSGKKALIAEVKRMPENNYVHSTFMEKVEHLKHKEMAKYDIETRVLGLEDM | failed |
| MSKVIIPKIVGHRGVGKEGLAPENTLRSFVLCMERNIPYIETDLRVCKTGEIVLFHGTPEGTIPFYKDGTSRIGDLSLEELKRLDVGGGHTIPSLEELFVAIEEQKFNLKLNLELKGEEWKRKESGDHQRLLLLVEKYHMQERVDYCSFHHEALAHLKALCPDVKITYLFNYMGQPTPLDFVEQTQKACYGDANGVSMLFHYLTKEQVCTAHEKGLSVTVWMPWIFDDSEEDWKKCLELQVDLICSNYPFGLMNFLSNISE | not failed |
| MIKERPKFNWLHLLIFIVVVEAIGSLSAWLAGDIKAVYNGLNLPVLSPPDGLFGIVWPILYALIAIAGYLVFQQATTHRDRLMDATLFGIQLLLNFIWSIIFFSQSAYWWGLVIIIVLDLVVLLCILRFYRSSRLAAILMVPYLVWICFATYLTLGVALLN | failed |
| MEWLNEPPNWSHSDQKIIVTTSPKTDFWRITHYGFIRDSGHFYFDRVSTDFVVDVKIKGNYKDLYDQAGIMIRADEQHWIKTGIEYVDGVQNLSAVVTHNYSDWSFTPLLNPPNIFQVRVERCQEAIHIAYLDEYSRYVPFRMAYFPVALDIQVGIMCASPQGNGYEVIFEDYQLTKKGEKLSLEHHHHHH | failed |
| MPTISTSVCVNYTQDQMYELVNDVADYPKYLPLCRDVRVLSAADRHIKATITLAKGAVRLNFTTANTMEPGRHIHMKLVDGPFKYLRGNWRFDANPHGGCDVSFRVDFEFANPLLQMALGGIFREVMESLVAAFCNQAAKRYGNAGPALPPGQAQDGVGRSGSV | failed |
| MPKLSLIIATFNDAIGLARCLDSIEQQTVRADCEVLVFDNASSDGTVELLQGWSDRLTYWESERDRGIYHAWNKAIARASGDYVAFVGADDYYASPTALQQLLELTVGQPDLVSGRNAYYSPEGKFLRTWGYAWDWQRMRESMILSHPGLLMRRSLFDRIGLFDERFRICGDYDWLLRLPPDLKAVHTNQVILCLSMGGLSNTRISRVFAETFQAQRRQPDLGRWRSGVYWLINWLKFGRRKLIGLA | failed |
| MRVFPVTLGPLQENAYLVETGEGPVLIDPGDEPEKLLALFQTTGLIPLAILLTHAHFDHVGAVAPLVEALDLPVYLHPLDLPLYEGADLAARAWGLAIPKPPLPVRPLEEGMRLFGFQVLHLPGHSPGHVAFYDPEGAQVFSGDLLFRGSVGRYDLPGADPKALFASLKRLLSLPPETRVHPGHGPGTTLGLEARTNPFLTGLEWEA | not failed |
| MHAELYRTRKRWYESAWPGAGFWRGANDTLPVTNYITYPANFDQPDGQSLTPLTMAAMMGNVKFVKTLLSHYDVDLDRECNVIYDGMVVYGATALWVAAGMGHLQIVKMLVQAGAAINHNTKAQSSPLRAACYEGRLDIVEFLIDNGADVNATNLFNNNTLMIAAYKGHHLVVKTLLQNGSRANDQALCGATALHYAAESGHLDVVVALLDHGATLKKNELGITPALQAAERLHEDVLEAFIERPELMSLEEQITALELLGATYANDKIKYDVNKAYGYLLRAMQLRYSNPRGVIRKRVQPTVPAYDNWLETENLPELYAIKLNHHSIHMESLAIRERILGRNNPELPQAIIYRGAVMADQGRFYQCQVLWNYAIDLRMRNNVSVDRDLLRFAQLFAQILRVENHNLTLDHVLPVLAKCQQEIENNKFKIKEAKPNACPSLWQDQNNQNCITALYLIKIVTHLARRKKDQNIDEEHIQQLFLVVRKFIQNDTRLQDGQTLLHIAVNGVMPVDEFYTNEMCRFPCYATALVLVHCGASVVAVDSDRNTPLHILVTKVNTTQDRQAEMARILELFVEAGAHLDAVNAAGQTAATACKLPILANRLHAHQNAHTSLKCLAARSIATNRLNFKGLIPTQLEAFIQMHSVRKVLP | failed |
| MIKQVNPHFKEFLFDWNQKFQFLVGGYGSSKSYHVALKIVLKLLREKRTALVIREVYDTHRDSTFSLFDELVSDLKLDHIVRCVSSPMQIRFSNGSRIIFKGMDKPAKLKSINNISLIWIEECSEVKYEGFKELLGRLRHPTLPLHMILSTNPVGEDNWTFKHFFKDDREKRFVLDDKELYEKRIIVSNDTYYHHSTADDNLFLPESYVQQLEELKEYDPDLYRIARKGHFGVNGIRVLPQFEERPHEEVMTAISNINRPLKRVGMDFGFVESYNAVVRVAVDHEKKYLYIYWEYYKNGLTDDKTAEELKEFAETKELIKADSAEPKTIRYFQQHGFNMVGARKYQGSRLQYTKKIKRFRKIICSDRCENTIYELKPLAYATDKLGNIIEDEFTIDPHTLSAIWYALDDYEVTDLKEESKGRPQRSRPGRR | not failed |
| MPLITTETGKKMHVLEDGRKLITVIPGDGIGPECVEATLKVLEAAKAPLAYEVREAGASVFRRGIASGVPQETIESIRKTRVVLKGPLETPVGYGEKSANVTLRKLFETYANVRPVREFPNVPTPYAGRGIDLVVVRENVEDLYAGIEHMQTPSVAQTLKLISWKGSEKIVRFAFELARAEGRKKVHCATKSNIMKLAEGTLKRAFEQVAQEYPDIEAVHIIVDNAAHQLVKRPEQFEVIVTTNMNGDILSDLTSGLIGGLGFAPSANIGNEVAIFEAVHGSAPKYAGKNVINPTAVLLSAVMMLRYLEEFATADLIENALLYTLEEGRVLTGDVVGYDRGAKTTEYTEAIIQNLGKTPRKTQVRGYKPFRLPQVDGAIAPIVPRSRRVVGVDVFVETNLLPEALGKALEDLAAGTPFRLKMISNRGTQVYPPTGGLTDLVDHYRCRFLYTGEGEAKDPEILDLVSRVASRFRWMHLEKLQEFDGEPGFTKAQGED | not failed |

From a protein production outcome set (Wang et al. 2014)
